{"source": "paper PMC11430019", "about": "(bioRxiv, 2024)", "binders": {"B1": {"name": "CHL27 Fab (Fab, V domains shown)", "VH": "QIQLVQSGPELKKPGETVKISCRASGYTFTDYSMHWVKQAPGKGLQWMGWIDTETGEPTYADDFKGRFAFSLETSAITAYLQINNLKNEDTATYFCARGLSPYWGHGTLVTVSA", "VL": "NIVMTQSPKSMSMSVGERVTLSCKASENVGSYVSWYQQKPEQSPKLLIYGASIRHTGVPDRFAGSGSATDFTLTISSVQAEDLAAYHCGQTYSSPYTFGGGTKLEIK"}}, "key": {"[1]": {"target": "HSV-2 gH ectodomain (gH_(ecto)) (HSV-2, UniProt P89445)", "sequence (P89445 19-803)": "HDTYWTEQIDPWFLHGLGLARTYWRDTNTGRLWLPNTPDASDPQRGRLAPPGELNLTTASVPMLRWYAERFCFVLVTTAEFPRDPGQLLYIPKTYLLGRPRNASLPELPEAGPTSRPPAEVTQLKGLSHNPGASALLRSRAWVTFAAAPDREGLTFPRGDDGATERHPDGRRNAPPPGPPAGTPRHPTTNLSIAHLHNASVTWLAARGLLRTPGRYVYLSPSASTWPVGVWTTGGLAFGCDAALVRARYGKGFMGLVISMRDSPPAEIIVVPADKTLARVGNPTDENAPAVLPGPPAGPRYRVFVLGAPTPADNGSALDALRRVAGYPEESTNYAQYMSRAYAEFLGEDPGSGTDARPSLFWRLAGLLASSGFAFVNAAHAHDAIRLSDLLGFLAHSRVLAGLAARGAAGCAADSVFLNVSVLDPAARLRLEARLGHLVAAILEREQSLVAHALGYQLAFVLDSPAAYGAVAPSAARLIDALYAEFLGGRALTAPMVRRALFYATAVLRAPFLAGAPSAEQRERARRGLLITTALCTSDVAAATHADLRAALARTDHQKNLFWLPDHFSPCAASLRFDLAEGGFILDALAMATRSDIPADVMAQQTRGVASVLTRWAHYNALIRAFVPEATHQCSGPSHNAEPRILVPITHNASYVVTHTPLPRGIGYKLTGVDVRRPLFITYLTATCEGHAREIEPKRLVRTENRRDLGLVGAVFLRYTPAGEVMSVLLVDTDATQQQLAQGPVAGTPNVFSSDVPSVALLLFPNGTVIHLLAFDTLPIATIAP", "assay": "cryo-EM structure"}, "[2]": {"target": "HSV-2 gH ectodomain / gL heterodimeric complex (gH_(ecto)/gL) (HSV-2, UniProt P89445;P28278)", "sequence (P89445 19-803, chain 1 of 2)": "as the sequence (P89445 19-803) above", "sequence (P28278 17-224, chain 2 of 2)": "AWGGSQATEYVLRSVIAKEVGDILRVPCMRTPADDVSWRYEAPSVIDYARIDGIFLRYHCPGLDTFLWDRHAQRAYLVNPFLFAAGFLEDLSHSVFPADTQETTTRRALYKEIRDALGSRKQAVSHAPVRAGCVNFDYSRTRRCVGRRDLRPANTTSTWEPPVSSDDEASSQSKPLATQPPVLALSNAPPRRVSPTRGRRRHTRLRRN", "assay": "cryo-EM structure"}}}
{"binder": "B1", "values": [{"measurement": "binding result", "setting": "[1]", "value": "binds"}, {"measurement": "binding result", "setting": "[2]", "value": "binds"}]}
